In patent US9187558B2, “Anti-epithelial cell adhesion molecule (EpCAM) antibodies and methods of use thereof” (ACADEMIA SINICA, priority 2012, dated 2015):
Positions count from the first letter of the chain named.

Experiments:
HCT116 sphere cells = test: Spheroid (tumorsphere formation) assay; type: cell-based, human
Method: Spheroid Assay. For spheroid formation, culture cells were disassociated into single cells. 5×10^3 cells were seeded at an ultra-low 6-well plate (CORNING™ for 6 days and were maintained in DMEM/F12 supplemented with B27 (INVITROGEN®), EGF (10 ng/ml) and FGF (25 ng/ml) twice a week. The spheres were counted under a microscope. For serum-induced differentiation assay, tumorspheres were cultured in matrigel-coated plate supplemented with DMEM containing 10% FBS for 7 days to induce the differentiation process.

tumor invasiveness = test: Invasion assay (Matrigel transwell); type: cell-based
Method: Colony Formation and Invasion Assay. For colony formation assay, cells were seeded at a density of 5×10^3 in 6-well plate for 10 day, followed by fixing and staining with crystal violet. For invasion assay, cells (1×10^5) were seeded at a transwell insert (8-μm polycarbonate Nucleopore filters, Corning) coated with Matrigel (BD Biosciences) at room temperature for 30 min to form a genuine reconstituted basement membrane. After 24 h incubation, cells were fixed with methanol for 10 min, and non-invaded cells were then removed by cotton swap. The invaded cells were observed by staining with DAPI, imaged under an inverted fluorescent microscopy (Zeiss), and quantified by ImageJ software.

[1] = test system: c-MYC, OCT4, NANOG, and SOX2 promoters; test: Luciferase reporter assay of reprogramming gene promoters; type: cell-based, human
Method: Luciferase Reporter Assay. Cells were seeded in a plate and co-transfected with pcDNA3.1, EpCAM, EpICD, or EpEX-expressing vectors (400 ng) and pGL4-Oct4-Luc, Nanog-Luc, Sox2-Luc, or c-Myc-Luc-expressing plasmid (100 ng) by PolyJET for 24 h. Promoter activities were measured by the Dul-Glo Luciferase kit (Promega), and the transfected efficiency was normalized by co-transfection with pRL-TK (20 ng) as an internal control.

EpICD cleavage = EpICD cleavage and cellular localization (confocal immunofluorescence, Western blot); type: cell-based, human; settings: for EpICD cleavage: 24 h, TAPI 40 μM
Method: Immunofluorescent Staining. Cells cultured on cover slips were fixed in paraformaldehyde, washed, and then blocked with 1% bovine serum albumin in PBS for 10 min. Cells were incubated at room temperature with primary antibodies in 1% bovine serum albumin. After 1 h incubation, cells were washed and incubated with fluorescein isothiocyanate (FITC) goat anti-mouse antibody (Jackson ImmunoResearch Laboratories), Alexafluor488 goat-anti-mouse or Alexaflour568 goat-anti-rabbit (INVITROGEN®) antibodies. 4′,6-Diamidino-2-phenylindole (DAPI) was added for nuclear counter staining.
(§1) Immunoprecipitation and Western Blot Analysis. […] The supernatants were immunoprecipitated using anti-EpCAM antibodies.

[2] = test system: vimentin, snail, and slug; test: EMT gene expression; type: cell-based, human
Method: as §1
RNA Extraction and Quantitative Real-Time RT-PCR. Total RNAs were prepared from the cell lines using ULTRASPEC RNA isolation reagent (Biotecx Laboratories, Houston, Tex.). cDNAs were reverse-transcribed using Super-Script III RNaseH-reverse transcriptase (INVITROGEN®, Carlsbad, Calif.) according to the manufacturer's instructions. Quantitative RT-PCR was performed by using the LightCycler480 System (Roche Applied Science). The gene expression level of each sample was normalized to the expression level of GAPDH in the same sample. The reactions were performed in triplicate, and S.D. values were calculated.

release of EpEX = test: Release of EpEX into HCT116 culture supernatants (immunoprecipitation and Western blot); type: cell-based, human; settings: HCT116 cells, 24 h; DAPT 50 μM, TAPI 40 μM
Description: as §1

[3] = test system: HCT116 and tumorsphere (HCT116 sphere) cells; test: Hypodiploid DNA content by flow cytometry with PI staining; type: cell-based, human; settings: tumor and tumorsphere cells
Method: (§2) Apoptosis Assays. Cells were separately seeded and treated with 0-20 μg/ml mAbs for 6 h. Apoptotic cells were detected by Annexin V-FITC and PI and analyzed by a flow cytometer (BD imnmmunocytometry systems, San Jose, Calif.). Early apoptosis was measured with the Annexin V-FITC Apoptosis Detection kit II (BD Pharmingen, La Jolla, Calif.). Apoptotic nuclei were detected with propidium iodide (PI) staining.

[4] = test system: SAS-derived oral cancer xenografts; test: SAS-derived oral cancer xenograft antitumor efficacy; settings: n=6
Method: Animal Model for Analysis of Antitumor Efficacy. […] Treatments were administered through tail vein injection, 10 mg/kg twice a week, for 4 consecutive weeks, with a total dose of 80 mg/kg. […] The tumor volumes were calculated as length×(width)^2×0.52.

[5] = test system: SAS and HCT116 cell lines; test: Apoptosis assay, Annexin V-FITC and PI flow cytometry; type: cell-based, human; settings: 0-20 μg/ml, 6 h
Method: as §2

[6] = test system: EpCAM mutants (Y95, D96 on EGF-II domain); settings: mutations in positions Y95 or D96 on EGF-II domain; 1 μg/ml antibody
Method: HEK293 cells at 80%-90% confluency in 6-well plates were transfected with plasmids of various EpCAMs. After two days transfection, the cells were washed with PBS. Cells were extracted with RIPA buffer, supplemented with a protease inhibitor mixture tablet and spun at 20,000 g for 30 min at 4° C. […] The signals were developed using enhanced chemiluminescence reagents (ECL) (Thermo Scientific, Rockford, Ill.).

[7] = test system: human cancer cells (SAS, NPC039, HCT116, SKOV3); test: Cellular ELISA, Western blot and FACS binding to cancer cell lines; settings: Western blot, FACS
Method: ELISA. 96-well plates (Corning Costar, St. Louis, Mo.) were seeded with SAS (oral carcinoma), NPC, HCT116 (colon cancer), SKOV3 (ovarian cancer cell line), NNM and HUVEC cells. The plates fixed with 2% paraformaldehyde and blocked with 1% bovine serum albumin. OCAb9-1 was added to the plates and incubated for 1 h. The plates were then washed with PBS containing 0.1% (w/v) TWEEN® 20 (PBST0.1) and incubated with horseradish peroxidase-conjugated anti-mouse IgG (Jackson ImmunoResearch Laboratories) for another 1 h. After washing, the plates were incubated with substrate solution o-phenylenediamine dihydrochloride (SIGMA™). The reaction was stopped by adding 3 N HCl, and the plates were read using a microplate reader at 490 nm.
Flow Cytometry. SAS, HCT116 and NNM were dissociated with 0.25% trypsin-EDTA (1 mM) (INVITROGEN®) for 1-3 min. Cells were washed with fluorescence-activated cell sorting buffer (PBS containing 1% fetal calf serum) and then incubated for 1 h at 4° C. in fluorescence-activated cell sorting buffer with the OCAb9-1 and EpAb mAbs at dilutions that ranged from […]. Phycoerythrin-conjugated goat anti-mouse IgG was used as a secondary antibody (dilution 1:250; Jackson ImmunoResearch Laboratories (West Grove, Pa.) for 30 min at 4° C. After the final wash, the cells were re-suspended with 1% FBS in PBS and analyzed by flow cytometry (BD, San Jose, Calif.). […]

CCD-1112Sk normal cells = test: Cellular ELISA binding to normal foreskin cells; parameters: species or system human
[8] = HCT116 cells, sEpEX 2.5, 5 μg/ml

With `C[C@H](NC(=O)Cc1cc(F)cc(F)c1)C(=O)N[C@H](C(=O)OC(C)(C)C)c1ccccc1` [DAPT] the sphere-forming capacity (HCT116 sphere cells) was “decreasing”, the tumor invasiveness (tumor invasiveness) was “decreasing” and the “EpCAM-induced transcriptional activities of c-MYC, OCT4, NANOG, and SOX2” value [1] was “blocked”. For the same molecule, the “expression of soluble EpICD-v5 (10 kDa)” value (EpICD cleavage; 293T/EpCAM-v5 cells) was “reduced”, the EpICD cleavage (EpICD cleavage; HCT116 cells, DAPT 50 μM) was “inhibited EpICD cleavage” and the “soluble EpICD signals in cytoplasm and nucleus” value (EpICD cleavage; HCT116 cells, DAPT 50 μM) was “blocked”. For the same molecule, the “expressions of vimentin, snail, and slug” value [2] was “suppressed” and the “release of EpEX” value (release of EpEX) was “blocked the release of EpEX”.

For TAPI, the EpICD cleavage (EpICD cleavage; HCT116 cells, DAPT 50 μM) was “inhibited EpICD cleavage” and the “release of EpEX” value (release of EpEX) was “blocked the release of EpEX”.

B1: EpAb2-6: one of five newly generated anti-EpCAM mAbs; VH SEQ ID NO: 2, VL SEQ ID NO: 3 (antibody, listed as Homo sapiens, V domains shown)
VH: EVQLVESGPELKKPGETVKISCKASGYTFTDYSMHWVKQAPGKGLKWMGWINTETGEPTFADDFKGRFAFSLETSARTTYLQINNLKNEDTATYFCARTAVYWGQGTSLTVSS
VL: DIQLTQSPSSLSASLGERVSLTCRASQEISVSLSWLQQKPDGTIKRLIYATSTLDSGVPKRFSGSRSGSDYSLTISSLESEDFADYYCLQYASYPWTFGGGTKLEIKRADAAPTVS
For B1, the tumorsphere formation (HCT116 sphere cells; 6 days treatment) was “suppressed tumorsphere formation effectively”, the “hypodiploid DNA content” value [3] was “induced hypodiploid DNA content” and the “tumor size of control PBS group relative to EpAb2-6 group” value ([4]; 10 mg/kg i.v. twice a week) was 1.5 fold. The “median overall survival of tumor-bearing mice” value ([4]; SAS xenograft) was 71 days, the “induction of cancer cell apoptosis” value [5] was “could induce cancer cell apoptosis” and the “relative binding activity to EpCAM mutants vs wild type” value [6] was “markedly reduction”.

B2: hEpAb2-6: CDRs of EpAb2-6 grafted onto human IgG1 backbone; VH SEQ ID NO: 24, VL SEQ ID NO: 25 (antibody, V domains shown)
VH: VKLQESGPELKKPGETVKISCKASGYTFTDYSMHWVKQAPGKGLKWMGWINTETGEPTYADDFKGRFAFSLETSASTAYLQINNLKNEDTATYFCARTAVYWGQGTTVTVSS
VL: B1 VL with L4M, K39E, A84V
modifications: human IgG1 backbone; Humanized VH domain; Humanized VL domain
For B2, the “recognition of (binding to) human cancer cells” value [7] was “recognized both SAS and HCT116 cancer cells”, the “induction of cancer cell apoptosis” value [5] was “induced cancer cell apoptosis” and the “recognition of CCD-1112Sk normal cells” value (CCD-1112Sk normal cells) was “not CCD-1112Sk normal cells”.

B3: sEpEX: soluble extracellular domain of EpCAM (protein, UniProt P16422 24-265, looked up)
extracellular domain: QEECVCENYKLAVNCFVNNNRQCQCTSVGAQNTVICSKLAAKCLVMKAEMNGSKLGRRAKPEGALQNNDGLYDPDCDESGLFKAKQCNGTSMCWCVNTAGVRRTDKDTEITCSERVRTYWIIIELKHKAREKPYDSKSLRTALQKEITTRYQLDPKFITSILYENNVITIDLVQNSSQKTQNDVDIADVAYYFEKDVKGESLFHSKKMDLTVNGEQLDLDPGQTLIYYVDEKAPEFSMQGLK
modifications: extracellular domain
notes: soluble extracellular domain of EpCAM
For B3, the “reporter activities of c-MYC, OCT4, NANOG, and SOX2” value ([1]; HCT116 cells, sEpEX 2 μg/ml) was “induced reporter activities”, the “induction of EpICD cleavage” value (EpICD cleavage; [8]) was “inductions” and the “induction of vimentin expression” value [2, 8] was “inductions”.
